Test results taken from patent US20250282861A1 (SYDDANSK UNIVERSITET, published 2025).

Molecular target: T1, recombinant human MFAP4 (microfibrillar-associated protein 4) (human, UniProt P55083 22-255)
T1 construct: It was coated on plates or filters at 10 µg/ml and also served as the ELISA standard; also called rhMFAP4; hrMFAP4
T1 sequence (looked up): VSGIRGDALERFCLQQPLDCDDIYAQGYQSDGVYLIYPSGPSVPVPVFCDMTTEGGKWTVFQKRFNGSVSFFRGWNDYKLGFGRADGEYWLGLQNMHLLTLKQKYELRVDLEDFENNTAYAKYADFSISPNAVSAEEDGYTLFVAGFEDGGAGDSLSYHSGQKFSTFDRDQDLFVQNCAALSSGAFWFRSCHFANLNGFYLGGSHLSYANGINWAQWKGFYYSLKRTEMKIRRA
Test: sandwich ELISA, capture antibody coated at 1 µg/ml; rhMFAP4 as standard
Method: The next day, plates were washed and blocked with PBS/tween for 1h at room temperature. […] Then, plates were successively incubated with horseradish peroxidase (HRP)-conjugated streptavidin (1:2000, diluted in PBS/tween, Invitrogen) for half an hour at room temperature, O-phenylenediamine dihydrochloride (OPD) (0.4 mg/ml, H1009, Sigma) dissolved in HRP with 0.03% H₂O₂, for 15 min at room temperature in the dark. Finally, 100 μl/well of 1M H₂SO₄ was added to stop the color development. Optical density was read at 492 nm wavelength with 620 nm as reference using ELISA microplate reader.

- binding result: binds
B1: HG Hyb 7-5 murine monoclonal antibody raised against human recombinant MFAP4 (antibody, mouse IgG1, V domains shown)
VH: EVQLQQSGPELVKPGASVKLSCKTSGYTFTSYDMNWVKQRPGQGLEWIGWIFPRDGSTKFNEKFKGKATLTVDTSSTTAYMELHSLTSEDSAVYFCARAEIFFDYGFDYWGQGTTLTVSS
VL: DIVMTQSTALMAASPGEKVTITCSVSSSISSSNLHWYQQKSETSPKSWIYGTSNLASGVPGRFSGSGSGTSYSLTISSVEAEDAATYYCQQWSSYPLTFGGGTKLEIK
notes: Used as the capture antibody in the ELISA for human MFAP4
